Measured values taken from patent US20260234246A1 (CAEDO ONCOLOGY, published 2026).

Legend:
[1] = target: T1, recombinant CD47 (recCD47), SinoBiological 12283-H27H-B, biotinylated (human, UniProt Q08722 19-139, biotinylated (AVI-tag)); test: SPR Biacore S200, single-cycle, recCD47 on SA chip 100 RU, antibody as analyte, 25 C, 1:1 model;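 further: antibodies were injected over the captured CD47 at a series of concentrations, and KD was derived as the dissociation rate constant divided by the association rate constant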
T1 construct: Bought protein, 17 kDa; At 17 kDa it can only be a part of it; also called recombinant biotinylated CD47; not shown: C-terminal His- and AVI-tag

[2] = target: T1, recombinant CD47 (recCD47), …; test: SPR Biacore S200, single-cycle, recCD47 on SA chip 700 RU, antibody as analyte, 25 C, 1:1 model
[3] = target: T2, human CD47 on the surface of cells (human cancer cell lines and human red blood cells) (human, UniProt Q08722 19-323); test: flow cytometry, FITC-conjugated antibody on Reh cells
T2 construct: Native CD47 of human cell lines (Jurkat, Reh, CCRF-CEM and others) and of RBCs from healthy donors; also called cell-surface CD47
Procedure: (§1) PBS-washed cancer cell lines or RBCs were pelleted and washed with washing buffer (3% (w/v) BSA, 1% (w/v) sodium azide in PBS) and incubated with Human BD Fc Block for 10 minutes before being plated into a round-bottom 96 well plate (2.5×10⁵ cells per well). Antibodies were conjugated with FITC using the FITC conjugation kit from Abcam. […] All samples were prepared in duplicates. Cells were washed three times and resuspended in cold washing buffer. Cells were kept on ice until analyses by flow cytometry. Excitation wavelength FITC: 488 nm, detection: 530/30 nm.
(§2) 4-parameter curve fitting was performed using GraphPad Prism

[4] = target: T2, human CD47 on the surface of cells …; test: flow cytometry, FITC-conjugated antibody on human RBCs
Procedure: as §1, §2

[5] = target: T2, human CD47 on the surface of cells …; test: flow cytometry, FITC-conjugated antibody on Jurkat cells
Procedure: as §1, §2

[6] = target: T2, human CD47 on the surface of cells …; test: flow cytometry, FITC-conjugated antibody on CCRF-CEM cells
Procedure: as §1, §2

[7] = target: T1, recombinant CD47 (recCD47), …; test: SPR Biacore S200, multi-cycle (top 50 nM), recCD47 on SA chip 1330 RU, antibody as analyte, 1:1 model
[8] = target: T1, recombinant CD47 (recCD47), …; test: SPR Biacore S200, single-cycle (top 80 nM), recCD47 on SA chip 1330 RU, antibody as analyte, 1:1 model

T1 sequence (Q08722 19-139 limits assumed): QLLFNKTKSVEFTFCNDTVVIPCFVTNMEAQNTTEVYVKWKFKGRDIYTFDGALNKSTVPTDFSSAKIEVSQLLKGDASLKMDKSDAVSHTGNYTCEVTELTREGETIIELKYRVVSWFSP
T2 sequence (Q08722 19-323 limits assumed): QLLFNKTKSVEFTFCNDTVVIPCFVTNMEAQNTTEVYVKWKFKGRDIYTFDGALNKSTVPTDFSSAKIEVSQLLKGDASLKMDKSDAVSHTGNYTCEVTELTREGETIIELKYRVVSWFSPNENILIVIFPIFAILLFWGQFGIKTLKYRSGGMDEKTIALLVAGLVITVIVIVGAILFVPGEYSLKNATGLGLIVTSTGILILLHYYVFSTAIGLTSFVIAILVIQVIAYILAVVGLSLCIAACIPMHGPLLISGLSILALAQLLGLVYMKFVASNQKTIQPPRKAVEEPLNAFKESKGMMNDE

| Binder | Kd [1] [nM] | koff [1] [s⁻¹] | kon [1] [M⁻¹ s⁻¹] | also measured |
| --- | --- | --- | --- | --- |
| CO207 humanized IgG4 anti-CD47 antibody (antibody, V domains shown, also called huCO-mAb) VH: QVQLVQSGSELKKPGASVKVSCKASGYTFTNFGMHWVRQAPGQGLKWMGWINTYTGEPTYTDDFKGRFVFSLDTSVSTAYLQISSLKAEDTAVYYCTRGDYRYGDSWGQGTTVTVSS VL: DIVMTQTPLSLSVTPGQPASISCRSSQSLVHSNGKTYLHWYLQKPGQSPQLLIYRVSNRFSGVPDRFSGSGSGTDFTLKISRVEAEDVGVYYCSQSTHVPFTFGQGTKLEIK | 0.0153 | 7.3e-05 | 4.8e+06 |  |
| CO211 humanized IgG4 anti-CD47 antibody (antibody, V domains shown, also called huCO-mAb) VH: QVQLVQSGSELKKPGASVKVSCKASGYTFTNFGMHWVRQAPGQGLKWMGWINTYTGEPTYTDDFKGRFVFSLDTSVSTAYLQISSLKAEDTAVYYCTRGDYRYGDSWGQGTTVTVSS VL: DIVMTQTPLSLSVTPGQPASISCRSSQSLVHSNGKTYLHWYLQKPGQSPKLLIYRVSNRFSGVPDRFSGSGSGTDFTLKISRVEAEDVGVYYCSQSTHVPFTFGQGTKLEIK | 0.0135 | 6.8e-05 | 5.1e+06 |  |
| CO212 humanized IgG4 anti-CD47 antibody (antibody, V domains shown, also called huCO-mAb) VH: QVQLVQSGSELKKPGASVKVSCKASGYTFTNFGMHWVRQAPGKGLKWMGWINTYTGEPTYTDDFKGRFVFSLDTSVSTAYLQISSLKAEDTAVYYCTRGDYRYGDSWGQGTTVTVSS VL: DIVMTQTPLSLSVTPGQPASISCRSSQSLVHSNGKTYLHWYLQKPGQSPKLLIYRVSNRFSGVPDRFSGSGSGTDFTLKISRVEAEDVGVYYCSQSTHVPFTFGQGTKLEIK | 0.0123 | 7.2e-05 | 5.8e+06 |  |
| CO210 humanized IgG4 anti-CD47 antibody (antibody, V domains shown, also called huCO-mAb) VH: QVQLVQSGSELKKPGASVKVSCKASGYTFTNFGMHWVRQAPGQGLEWMGWINTYTGEPTYTDDFKGRFVFSLDTSVSTAYLQISSLKAEDTAVYYCTRGDYRYGDSWGQGTTVTVSS VL: DIVMTQTPLSLSVTPGQPASISCRSSQSLVHSNGKTYLHWYLQKPGQSPKLLIYRVSNRFSGVPDRFSGSGSGTDFTLKISRVEAEDVGVYYCSQSTHVPFTFGQGTKLEIK | 0.017 | 8.3e-05 | 4.9e+06 |  |
| CO209 humanized IgG4 anti-CD47 antibody (antibody, V domains shown, also called huCO-mAb) VH: QVQLVQSGSELKKPGASVKVSCKASGYTFTNFGMHWVRQAPGQGLEWMGWINTYTGEPTYTDDFKGRFVFSLDTSVSTAYLQISSLKAEDTAVYYCARGDYRYGDSWGQGTTVTVSS VL: DIVMTQTPLSLSVTPGQPASISCRSSQSLVHSNGKTYLHWYLQKPGQSPKLLIYRVSNRFSGVPDRFSGSGSGTDFTLKISRVEAEDVGVYYCSQSTHVPFTFGQGTKLEIK | 0.0386 | 0.00032 | 8.2e+06 |  |
| CO213 humanized IgG4 anti-CD47 antibody (antibody, V domains shown, also called huCO-mAb) VH: QVQLVQSGSELKKPGASVKVSCKASGYTFTNFGMHWVRQAPGQGLKWMGWINTYTGEPTYTDDFKGRFVFSLDTSVSTAYLQISSLKAEDTAVYYCARGDYRYGDSWGQGTTVTVSS VL: DIVMTQTPLSLSVTPGQPASISCRSSQSLVHSNGKTYLHWYLQKPGQPPQLLIYRVSNRFSGVPDRFSGSGSGTDFTLKISRVEAEDVGVYYCSQSTHVPFTFGQGTKLEIK | 0.032 | 0.00034 | 1.1e+07 |  |
| CO202 humanized IgG4 anti-CD47 antibody (antibody, V domains shown, also called huCO-mAb) VH: QVQLVQSGSELKKPGASVKVSCKASGYTFTNFGMHWVRQAPGQGLEWMGWINTYTGEPTYTDDFKGRFVFSLDTSVSTAYLQISSLKAEDTAVYYCTRGDYRYGDSWGQGTTVTVSS VL: DIVMTQTPLSLSVTPGQPASISCRSSQSLVHSNGKTYLHWYLQKPGQPPQLLIYRVSNRFSGVPDRFSGSGSGTDFTLKISRVEAEDVGVYYCSQSTHVPFTFGQGTKLEIK | 0.023 | 0.00012 | 5.3e+06 |  |
| CO204 humanized IgG4 anti-CD47 antibody (antibody, V domains shown, also called huCO-mAb) VH: QVQLVQSGSELKKPGASVKVSCKASGYTFTNFGMHWVRQAPGKGLKWMGWINTYTGEPTYTDDFKGRFVFSLDTSVSTAYLQISSLKAEDTAVYYCTRGDYRYGDSWGQGTTVTVSS VL: DIVMTQTPLSLSVTPGQPASISCRSSQSLVHSNGKTYLHWYLQKPGQPPQLLIYRVSNRFSGVPDRFSGSGSGTDFTLKISRVEAEDVGVYYCSQSTHVPFTFGQGTKLEIK | 0.0149 | 8.5e-05 | 5.7e+06 |  |
| CO208 humanized IgG4 anti-CD47 antibody (antibody, V domains shown, also called huCO-mAb) VH: QVQLVQSGSELKKPGASVKVSCKASGYTFTNFGMHWVRQAPGKGLKWMGWINTYTGEPTYTDDFKGRFVFSLDTSVSTAYLQISSLKAEDTAVYYCTRGDYRYGDSWGQGTTVTVSS VL: DIVMTQTPLSLSVTPGQPASISCRSSQSLVHSNGKTYLHWYLQKPGQSPQLLIYRVSNRFSGVPDRFSGSGSGTDFTLKISRVEAEDVGVYYCSQSTHVPFTFGQGTKLEIK | 0.016 | 8.1e-05 | 5e+06 |  |
| CO203 humanized IgG4 anti-CD47 antibody (antibody, V domains shown, also called huCO-mAb) VH: QVQLVQSGSELKKPGASVKVSCKASGYTFTNFGMHWVRQAPGQGLKWMGWINTYTGEPTYTDDFKGRFVFSLDTSVSTAYLQISSLKAEDTAVYYCTRGDYRYGDSWGQGTTVTVSS VL: DIVMTQTPLSLSVTPGQPASISCRSSQSLVHSNGKTYLHWYLQKPGQPPQLLIYRVSNRFSGVPDRFSGSGSGTDFTLKISRVEAEDVGVYYCSQSTHVPFTFGQGTKLEIK | 0.0164 | 7.9e-05 | 4.8e+06 |  |
| CO206 humanized IgG4 anti-CD47 antibody (antibody, V domains shown, also called huCO-mAb) VH: QVQLVQSGSELKKPGASVKVSCKASGYTFTNFGMHWVRQAPGQGLEWMGWINTYTGEPTYTDDFKGRFVFSLDTSVSTAYLQISSLKAEDTAVYYCTRGDYRYGDSWGQGTTVTVSS VL: DIVMTQTPLSLSVTPGQPASISCRSSQSLVHSNGKTYLHWYLQKPGQSPQLLIYRVSNRFSGVPDRFSGSGSGTDFTLKISRVEAEDVGVYYCSQSTHVPFTFGQGTKLEIK | 0.0205 | 0.0001 | 5.1e+06 |  |
| CO-1.4 antibody (chimeric CO-1 IgG4) (antibody, Chimeric: mouse variable domains of mCO-1 with human IgG4 constant regions; also called SC-CO-1.4) heavy: not shown light: DVVMTQTPLSLPVSLGDQASISCRSSQSLVHSNGKTYLHWYLQKPGQSPKLLIYRVSNRFSGVPDRFSGSGSGTDFTLKISRIEAEDLGVYFCSQSTHVPFTFGSGTKLEIKRTVAAPSVFIFPPSDEQLKSGTASVVCLLNNFYPREAKVQWKVDNALQSGNSQESVTEQDSKDSTYSLSSTLTLSKADYEKHKVYACEVTHQGLSSPVTKSFNRGEC |  |  |  | Kd [2]: 0.003 nM; koff [2]: 4.4e-06 s⁻¹; kon [2]: 1.5e+06 M⁻¹ s⁻¹ |
| AO-C IgG1 (AO-176 candidate C) (antibody, V domains shown, Comparator from WO2020/198370; also called AO-C.1; SC-AO-C) VH: QVQLVQSGAEVKKPGSSVKVSCKASGYTFTNYWIHWVRQAPGQGLEWMGYTDPRTDYTEYAQKFQGRVTITADESTSTAYMELSSLRSEDTAVYYCARGGRVGLGYWGQGTLVTVSS VL: DIVMTQSPDSLAVSLGERATINCRSSQNIVQSNGNTYLEWYQQKPGQPPKLLIYKVFHRFSGVPDRFSGSGSGTDFTLTISSLQAEDVAVYYCFQGSHVPYTFGQGTKLEIKR |  |  |  | EC50 [3]: 10.5 µg/mL; EC50 [4]: 21.8 µg/mL; EC50 [5]: 0.0395 µg/mL; EC50 [6]: 0.00578 µg/mL; Kd [7]: 6 nM; koff [7]: ~0.01 s⁻¹; kon [7]: 2.3e+06 M⁻¹ s⁻¹; Kd [8]: 3 nM; koff [8]: 0.003 s⁻¹; kon [8]: 1.2e+06 M⁻¹ s⁻¹ |
| AO-B IgG1 (AO-176 candidate B) (antibody, V domains shown, Comparator from WO2020/198370; also called AO-B.1; AO-176 B) VH: EVQLVQSGAEVKKPGESLKISCKGSGYTFTNYWIHWVRQMPGKGLEWMGYTDPRTDYTEYNQKFKDQVTISADKSISTAYLQWSSLKASDTAMYYCARGGRVGLGYWGQGTLVTVSS VL: DIVMTQSPDSLAVSLGERATINCRSSQNIVQSNGNTYLEWYQQKPGQPPKLLIYKVFHRFSGVPDRFSGSGSGTDFTLTISSLQAEDVAVYYCFQGSHVPYTFGQGTKLEIKR |  |  |  | EC50 [3]: 3.1 µg/mL; EC50 [4]: 3.67 µg/mL; EC50 [5]: 0.0748 µg/mL; EC50 [6]: 0.000559 µg/mL; Kd [7]: 3 nM; koff [7]: 0.004 s⁻¹; kon [7]: 1.5e+06 M⁻¹ s⁻¹; Kd [8]: 2 nM; koff [8]: 0.001 s⁻¹; kon [8]: 800000 M⁻¹ s⁻¹ |
